Laboratory results as given in PMC12378399 (Metallomics : integrated biometal science, 2025).
Read-outs that look alike come from different tables or passages of the source.

Tests used:
SufS (with SufE) = SufS (with SufE) (Escherichia coli, UniProt P77444); conditions: 50 mM MOPS pH 8.0, 150 mM NaCl, 2 mM TCEP, 500 μM L-cysteine, SufE 0.25-3 μM varied (not cysteine)
[1] = molecular target: BODIPY-labeled SufE C51A/E107C (SufEDM) (E. coli) (UniProt P76194); assay: fluorescence polarisation
SufS (Escherichia coli) [2] = molecular target: SufS (Escherichia coli) (UniProt P77444); conditions: cited from earlier work
Sequence of SufS (Escherichia coli) (P77444 whole entry): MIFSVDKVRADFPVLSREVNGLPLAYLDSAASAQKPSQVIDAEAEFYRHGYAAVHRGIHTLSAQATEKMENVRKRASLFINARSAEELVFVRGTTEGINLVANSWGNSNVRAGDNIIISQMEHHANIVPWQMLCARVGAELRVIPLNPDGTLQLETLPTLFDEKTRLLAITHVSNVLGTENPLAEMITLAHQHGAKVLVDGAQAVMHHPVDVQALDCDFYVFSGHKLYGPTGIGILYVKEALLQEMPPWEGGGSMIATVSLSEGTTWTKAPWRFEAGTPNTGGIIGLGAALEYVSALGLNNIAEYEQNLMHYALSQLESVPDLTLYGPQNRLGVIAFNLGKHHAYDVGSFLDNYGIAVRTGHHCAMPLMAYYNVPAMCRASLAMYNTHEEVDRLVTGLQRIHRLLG

[3] = molecular target: SufBC2D (Escherichia coli) (UniProt P77522); assay: surface plasmon resonance; conditions: cited from earlier work
Sequence of SufBC2D (Escherichia coli) (P77522 whole entry, chain 1 of 3): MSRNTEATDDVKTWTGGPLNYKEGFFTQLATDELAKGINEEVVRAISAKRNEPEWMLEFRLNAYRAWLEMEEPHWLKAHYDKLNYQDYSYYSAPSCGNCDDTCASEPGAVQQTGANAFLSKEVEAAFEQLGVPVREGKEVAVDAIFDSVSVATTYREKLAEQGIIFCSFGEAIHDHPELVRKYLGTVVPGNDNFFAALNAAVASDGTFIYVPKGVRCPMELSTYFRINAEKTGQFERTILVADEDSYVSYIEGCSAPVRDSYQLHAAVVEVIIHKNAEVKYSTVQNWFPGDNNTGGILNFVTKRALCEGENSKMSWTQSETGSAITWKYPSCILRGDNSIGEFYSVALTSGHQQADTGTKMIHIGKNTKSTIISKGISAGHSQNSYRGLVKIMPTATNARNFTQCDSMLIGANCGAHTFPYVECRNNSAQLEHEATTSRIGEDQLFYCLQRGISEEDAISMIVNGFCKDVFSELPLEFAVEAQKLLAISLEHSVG
Sequence of SufBC2D (Escherichia coli) (P77499 whole entry, chain 2 of 3, further chain): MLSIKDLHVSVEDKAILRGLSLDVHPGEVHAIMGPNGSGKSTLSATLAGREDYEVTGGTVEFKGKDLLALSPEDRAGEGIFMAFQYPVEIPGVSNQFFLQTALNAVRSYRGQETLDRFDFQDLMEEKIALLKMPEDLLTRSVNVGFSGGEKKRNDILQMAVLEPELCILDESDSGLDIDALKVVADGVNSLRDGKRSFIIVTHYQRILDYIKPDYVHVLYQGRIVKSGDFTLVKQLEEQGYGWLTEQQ
Sequence of SufBC2D (Escherichia coli) (P77689 whole entry, chain 3 of 3, further chain): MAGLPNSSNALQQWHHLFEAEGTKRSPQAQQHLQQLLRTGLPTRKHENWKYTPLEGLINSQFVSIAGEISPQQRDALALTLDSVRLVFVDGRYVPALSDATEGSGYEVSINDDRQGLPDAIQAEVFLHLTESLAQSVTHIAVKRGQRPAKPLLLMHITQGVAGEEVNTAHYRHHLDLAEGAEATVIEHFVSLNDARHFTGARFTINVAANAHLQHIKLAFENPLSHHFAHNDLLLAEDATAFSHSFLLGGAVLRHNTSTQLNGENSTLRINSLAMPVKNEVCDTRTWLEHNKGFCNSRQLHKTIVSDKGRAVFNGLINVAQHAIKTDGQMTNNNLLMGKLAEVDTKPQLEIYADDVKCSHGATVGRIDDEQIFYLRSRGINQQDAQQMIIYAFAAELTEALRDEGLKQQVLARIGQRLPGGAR

SufS (Escherichia coli) [4] = molecular target: SufS (Escherichia coli) (UniProt P77444); conditions: cited from earlier work; remark: listed apart in the source
[5] = molecular target: SufBC2D scaffold complex (His6-SufBCD) (E. coli) (UniProt P77522)
Sequence of SufBC2D scaffold complex (His6-SufBCD) (E. coli) (P77522 whole entry, chain 1 of 3): as the sequence (P77522 whole entry, chain 1 of 3) above
Sequence of SufBC2D scaffold complex (His6-SufBCD) (E. coli) (P77499 whole entry, chain 2 of 3, further chain): as the sequence (P77499 whole entry, chain 2 of 3, further chain) above
Sequence of SufBC2D scaffold complex (His6-SufBCD) (E. coli) (P77689 whole entry, chain 3 of 3, further chain): as the sequence (P77689 whole entry, chain 3 of 3, further chain) above

[6] = molecular target: SufBC2D scaffold complex (His6-SufBCD) (E. coli) (UniProt P77522); assay: steady-state enzyme inhibition

Sequence of SufS (with SufE) (P77444 whole entry, one chain of several): as the sequence (P77444 whole entry) above

Molecule: N[C@@H](CS)C(=O)O [L-cysteine]
- NDA-alanine fluorescence detection of L-alanine produced (SufS (with SufE)): Cysteine desulfurase activity of SufS was measured by quantifying the amount of L-alanine produced

Molecule: SufBC2D scaffold complex (His6-SufBCD) (from UniProt P77522 1-495; P77499 1-248; P77689 1-423)
- Kd [1]: 1.6 µM

Molecule: SufE (from UniProt P76194)
- Kd (SufS (Escherichia coli) [2]): 5 µM
- Kd [3]: 2.8 µM
- Kd (SufS (Escherichia coli) [4]): 0.5 µM

B1: SufE (wildtype) (natural protein)
chain: MALLPDKEKLLRNFLRCANWEEKYLYIIELGQRLPELRDEDRSPQNSIQGCQSQVWIVMRQNAQGIIELQGDSDAAIVKGLIAVVFILYDQMTPQDIVNFDVRPWFEKMALTQHLTPSRSQGLEAMIRAIRAKAAALS
- IC50 of inhibition of SufBC2D ATPase activity in the presence of 500 μM Mg2+-ATP [5]: 1 µM
- Ki [6]: 1.8 µM

B2: Carbamidomethylated SufE (SufE-alk) (natural protein)
chain: MALLPDKEKLLRNFLRCANWEEKYLYIIELGQRLPELRDEDRSPQNSIQGCQSQVWIVMRQNAQGIIELQGDSDAAIVKGLIAVVFILYDQMTPQDIVNFDVRPWFEKMALTQHLTPSRSQGLEAMIRAIRAKAAALS
modifications: C51 alkylated (carbamidomethylated with iodoacetamide)
- Ki [6]: 2.5 µM
